B1: ARL6IP1 (parent)
chain: YLDPSVLSGVSCFVMFLCLADYLV
B2: MIA2 (parent)
chain: SVIEPVQESSFRSRKIAVEDENDL

Variants of: B1
Assay: protein stability index of a GFP-peptide fusion (GPS, HEK-293T) (PSI 1-6); higher = more stable
Conditions: c terminus: a fixed tail appended
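Also: lentivirally expressed fusions sorted by FACS into six bins by GFP to DsRed ratio, PSI derived from sequencing read proportions per bin multiplied by bin number.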

Compared with YLDPSVLSGVSCFVMFLCLADYLS, YLDPSVLSGVSCFVMFLCLADYLY is lower in protein stability index: 2.53 for the first, 2.16 for the second.

Variants of: B2
Assay: as above
Conditions: c terminus: a fixed tail appended

First: AVIEPVQESSFRSRKIAVEDENDL
Second: CVIEPVQESSFRSRKIAVEDENDL
The protein stability index of the first is lower: 5.01 for the first, 5.53 for the second.

Going from DVIEPVQESSFRSRKIAVEDENDL to EVIEPVQESSFRSRKIAVEDENDL, the protein stability index falls from 5.68 to 5.28.

Compared with FVIEPVQESSFRSRKIAVEDENDL, GVIEPVQESSFRSRKIAVEDENDL is higher in protein stability index: 2.93 for the first, 5.17 for the second.

Compared with HVIEPVQESSFRSRKIAVEDENDL, IVIEPVQESSFRSRKIAVEDENDL is lower in protein stability index: 5.52 for the first, 3.96 for the second.

First: KVIEPVQESSFRSRKIAVEDENDL
Second: LVIEPVQESSFRSRKIAVEDENDL
The protein stability index of the first is higher: 5.13 for the first, 4.33 for the second.

First: MVIEPVQESSFRSRKIAVEDENDL
Second: NVIEPVQESSFRSRKIAVEDENDL
The protein stability index of the first is lower: 4.71 for the first, 5.69 for the second.

First: PVIEPVQESSFRSRKIAVEDENDL
Second: QVIEPVQESSFRSRKIAVEDENDL
The protein stability index of the first is higher: 5.59 for the first, 5.39 for the second.

Going from RVIEPVQESSFRSRKIAVEDENDL to TVIEPVQESSFRSRKIAVEDENDL, the protein stability index rises from 5.32 to 5.45.

Compared with VVIEPVQESSFRSRKIAVEDENDL, WVIEPVQESSFRSRKIAVEDENDL is higher in protein stability index: 4.33 for the first, 4.46 for the second.

Going from YVIEPVQESSFRSRKIAVEDENDL to SAIEPVQESSFRSRKIAVEDENDL, the protein stability index rises from 3.12 to 5.31.

First: SCIEPVQESSFRSRKIAVEDENDL
Second: SDIEPVQESSFRSRKIAVEDENDL
The protein stability index of the first is lower: 5.76 for the first, 5.83 for the second.

First: SEIEPVQESSFRSRKIAVEDENDL
Second: SFIEPVQESSFRSRKIAVEDENDL
The protein stability index of the first is higher: 5.22 for the first, 4.42 for the second.

First: SGIEPVQESSFRSRKIAVEDENDL
Second: SHIEPVQESSFRSRKIAVEDENDL
The protein stability index of the first is higher: 5.67 for the first, 5.51 for the second.

Compared with SIIEPVQESSFRSRKIAVEDENDL, SKIEPVQESSFRSRKIAVEDENDL is higher in protein stability index: 4.69 for the first, 5.38 for the second.

Compared with SLIEPVQESSFRSRKIAVEDENDL, SMIEPVQESSFRSRKIAVEDENDL is lower in protein stability index: 5.24 for the first, 5.22 for the second.

Compared with SNIEPVQESSFRSRKIAVEDENDL, SPIEPVQESSFRSRKIAVEDENDL is lower in protein stability index: 5.87 for the first, 5.15 for the second.

First: SQIEPVQESSFRSRKIAVEDENDL
Second: SRIEPVQESSFRSRKIAVEDENDL
The protein stability index of the first is higher: 5.82 for the first, 5.5 for the second.

Going from SSIEPVQESSFRSRKIAVEDENDL to STIEPVQESSFRSRKIAVEDENDL, the protein stability index falls from 5.32 to 5.31.

First: SWIEPVQESSFRSRKIAVEDENDL
Second: SYIEPVQESSFRSRKIAVEDENDL
The protein stability index of the first is lower: 5.14 for the first, 5.26 for the second.

First: SVAEPVQESSFRSRKIAVEDENDL
Second: SVCEPVQESSFRSRKIAVEDENDL
The protein stability index of the first is higher: 5.71 for the first, 5.5 for the second.

First: SVDEPVQESSFRSRKIAVEDENDL
Second: SVEEPVQESSFRSRKIAVEDENDL
The protein stability index of the first is higher: 5.9 for the first, 5.61 for the second.

First: SVFEPVQESSFRSRKIAVEDENDL
Second: SVGEPVQESSFRSRKIAVEDENDL
The protein stability index of the first is lower: 5.32 for the first, 5.73 for the second.

Compared with SVHEPVQESSFRSRKIAVEDENDL, SVKEPVQESSFRSRKIAVEDENDL is higher in protein stability index: 4.67 for the first, 4.92 for the second.

First: SVLEPVQESSFRSRKIAVEDENDL
Second: SVMEPVQESSFRSRKIAVEDENDL
The protein stability index of the first is higher: 5.59 for the first, 5.44 for the second.

Going from SVNEPVQESSFRSRKIAVEDENDL to SVPEPVQESSFRSRKIAVEDENDL, the protein stability index falls from 5.61 to 5.13.

Going from SVQEPVQESSFRSRKIAVEDENDL to SVREPVQESSFRSRKIAVEDENDL, the protein stability index rises from 4.57 to 5.59.

Going from SVSEPVQESSFRSRKIAVEDENDL to SVTEPVQESSFRSRKIAVEDENDL, the protein stability index rises from 4.84 to 5.6.

Compared with SVVEPVQESSFRSRKIAVEDENDL, SVWEPVQESSFRSRKIAVEDENDL is lower in protein stability index: 5.62 for the first, 5.13 for the second.

First: SVYEPVQESSFRSRKIAVEDENDL
Second: SVIAPVQESSFRSRKIAVEDENDL
The protein stability index of the first is lower: 5.42 for the first, 5.68 for the second.

First: SVICPVQESSFRSRKIAVEDENDL
Second: SVIDPVQESSFRSRKIAVEDENDL
The protein stability index of the first is higher: 5.08 for the first, 5.01 for the second.

Going from SVIFPVQESSFRSRKIAVEDENDL to SVIGPVQESSFRSRKIAVEDENDL, the protein stability index rises from 4.73 to 5.01.

Going from SVIHPVQESSFRSRKIAVEDENDL to SVIIPVQESSFRSRKIAVEDENDL, the protein stability index rises from 4.44 to 4.62.

Going from SVIKPVQESSFRSRKIAVEDENDL to SVILPVQESSFRSRKIAVEDENDL, the protein stability index falls from 5.03 to 4.62.

First: SVIMPVQESSFRSRKIAVEDENDL
Second: SVINPVQESSFRSRKIAVEDENDL
The protein stability index of the first is lower: 4.9 for the first, 5.21 for the second.

Compared with SVIPPVQESSFRSRKIAVEDENDL, SVIQPVQESSFRSRKIAVEDENDL is lower in protein stability index: 5.37 for the first, 4.7 for the second.

Compared with SVIRPVQESSFRSRKIAVEDENDL, SVISPVQESSFRSRKIAVEDENDL is higher in protein stability index: 5 for the first, 5.25 for the second.

First: SVITPVQESSFRSRKIAVEDENDL
Second: SVIVPVQESSFRSRKIAVEDENDL
The protein stability index of the first is higher: 5.35 for the first, 4.71 for the second.

Going from SVIWPVQESSFRSRKIAVEDENDL to SVIYPVQESSFRSRKIAVEDENDL, the protein stability index rises from 3.74 to 4.64.

First: SVIEAVQESSFRSRKIAVEDENDL
Second: SVIECVQESSFRSRKIAVEDENDL
The protein stability index of the first is lower: 4.3 for the first, 4.74 for the second.

First: SVIEDVQESSFRSRKIAVEDENDL
Second: SVIEEVQESSFRSRKIAVEDENDL
The protein stability index of the first is higher: 4.88 for the first, 4.79 for the second.

Going from SVIEFVQESSFRSRKIAVEDENDL to SVIEGVQESSFRSRKIAVEDENDL, the protein stability index rises from 3.31 to 4.65.

First: SVIEHVQESSFRSRKIAVEDENDL
Second: SVIEIVQESSFRSRKIAVEDENDL
The protein stability index of the first is higher: 4.98 for the first, 3.56 for the second.

Compared with SVIEKVQESSFRSRKIAVEDENDL, SVIELVQESSFRSRKIAVEDENDL is lower in protein stability index: 4.38 for the first, 3.56 for the second.

Going from SVIEMVQESSFRSRKIAVEDENDL to SVIENVQESSFRSRKIAVEDENDL, the protein stability index rises from 4.14 to 5.01.

First: SVIEQVQESSFRSRKIAVEDENDL
Second: SVIERVQESSFRSRKIAVEDENDL
The protein stability index of the first is higher: 5.26 for the first, 5.13 for the second.

Compared with SVIESVQESSFRSRKIAVEDENDL, SVIETVQESSFRSRKIAVEDENDL is higher in protein stability index: 5.03 for the first, 5.3 for the second.

Source: the supplement of paper PMC10567573
